Among the data in the Immune Epitope Database (IEDB) are Kd values, retold here.

Among the targets are HLA-A*23:01; HLA-A*02:03; HLA-B*57:01; HLA-B*46:01; HLA-A*02:01; HLA-A*02:19; HLA-B*08:01; HLA-B*15:17.
What all share (assay): IEDB peptide-MHC binding, purified MHC/competitive/fluorescence; filed as Kd, often an IC50 or EC50 that approximates it; ≥ and ≤ were set here for values at or beyond the usual limits of such assays
Settings in all cases: source organism: Entamoeba histolytica HM-1:IMSS

EVIRATYPS: the Kd with HLA-A*23:01, with HLA-A*02:03, with HLA-B*57:01, in the assay with HLA-B*46:01, with HLA-A*02:01 and with HLA-A*02:19 was ≥ 20 µM each time. Moreover, the Kd (in general, the equilibrium constant for the complex coming apart) is ≥ 5 µM in the assay with HLA-B*08:01 and ≥ 20 µM in the assay with HLA-B*15:17.
